Assays:
[1] = target: T1, androgen receptor N-terminus (AR18-500) (Rattus norvegicus, UniProt P15207); assay: Modified yeast two-hybrid, quantitative liquid beta-galactosidase assay; assay type: binding; conditions: LexA-ART fusions vs AR18-500; twelve hour incubation in galactose-containing media
T1 construct: receptor residues 18 through 500 (using the rat androgen receptor number scheme); expressed in transfected cells; host or cells: Saccharomyces cerevisiae EGY188
T1 sequence (P15207 18-500): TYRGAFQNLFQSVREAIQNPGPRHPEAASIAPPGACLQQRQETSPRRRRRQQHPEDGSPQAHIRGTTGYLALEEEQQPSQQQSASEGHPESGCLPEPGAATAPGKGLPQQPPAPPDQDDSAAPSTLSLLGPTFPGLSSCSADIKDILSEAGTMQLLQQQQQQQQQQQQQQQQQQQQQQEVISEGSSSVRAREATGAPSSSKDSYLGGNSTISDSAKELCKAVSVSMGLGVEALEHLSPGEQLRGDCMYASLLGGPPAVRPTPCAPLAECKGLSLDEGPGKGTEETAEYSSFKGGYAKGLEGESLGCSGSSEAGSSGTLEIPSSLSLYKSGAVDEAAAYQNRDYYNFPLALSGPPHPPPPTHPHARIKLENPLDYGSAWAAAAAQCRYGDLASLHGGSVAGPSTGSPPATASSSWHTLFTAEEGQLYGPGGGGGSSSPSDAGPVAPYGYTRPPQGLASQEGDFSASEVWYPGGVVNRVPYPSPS
Method: The modified yeast two hybrid assay is described in Hittelman et al., 1999. EGY188 was transformed by the lithium acetate method with (i) pJG4-5:AR18-500, (ii) pEG202:LNCaP cell cDNA library and (iii) pJK103, a β-galactosidase reporter gene with a single LexA operator. Potential interacting proteins were selected by plating the cDNA library expressing transformants onto galactose plates lacking leucine and containing X-gal.
Yeast were grown in selective liquid media containing 2% glucose for approximately 12 hours, pelleted, washed once with sterile H2O, normalized according to cell number and resuspended to an optical density (OD600) of 0.15 in 2% galactose/1% raffinose. β-galactosidase assays were performed 12 hours later as described previously (Garabedian et al., 1992).
Out of approximately one million library transformants, eight clones were isolated that interact with the androgen receptor N-terminus. There protein factors were termed ARTs, for Androgen Receptor Trapped, by the present inventors. The eight ART clones were sequenced and were subjected to a database search using the BLAST program. A quantitative liquid beta-galactosidase assay was used to measure the relative strength of interaction between the androgen receptor N-terminus and the ARTs using the yeast two-hybrid system. The levels of expression of the ARTs in yeast were similar, as determined by immunoblotting using an antibody to the LexA DNA-binding domain that is common to all of the ARTs.
ARTs expressed as fusion proteins with the LexA DNA binding domain were analyzed for their ability to interact with AR18-500. The relative strength of interaction was determined by a quantitative liquid beta-galactosidase assay after a twelve hour incubation in galactose-containing media at 30EC. The LexA vector alone gives 1 unit of activity.

[2] = target: T2, androgen receptor ligand-binding domain (579-901) (Rattus norvegicus, UniProt P15207); assay: Modified yeast two-hybrid specificity panel; conditions: absence or presence of hormone
T2 construct: expressed in transfected cells; host or cells: yeast (modified two-hybrid assay)
T2 sequence (P15207 579-901): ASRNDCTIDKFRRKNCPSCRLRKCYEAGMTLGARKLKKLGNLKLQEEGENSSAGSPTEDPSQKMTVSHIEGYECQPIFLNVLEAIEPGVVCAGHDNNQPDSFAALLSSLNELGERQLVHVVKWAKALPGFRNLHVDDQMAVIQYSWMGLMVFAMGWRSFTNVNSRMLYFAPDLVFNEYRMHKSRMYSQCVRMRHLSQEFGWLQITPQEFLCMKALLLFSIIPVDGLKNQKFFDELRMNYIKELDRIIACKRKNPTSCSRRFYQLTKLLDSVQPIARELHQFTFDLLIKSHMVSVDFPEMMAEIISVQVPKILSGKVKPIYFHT

relative strength of interaction with androgen receptor N-terminus [1]: strongest | interaction with androgen receptor ligand binding domain [2]: No interaction
B1: ART-5: Androgen Receptor Trapped protein, SEQ ID NO:4, unknown function, represented in EST database (protein)
chain: MHNPDGSASPTADPGSELQTLGQAARRPPPPRAGHDAPRRTRPSARKPLSCFSRRPMPTREPPKTRGSRGHLHTHPPGPGPPLQGLAPRGLKTSAPRPPCQPQPGPHKAKTKKIVFEDELLSQALLGAKKPIGAIPKGHKPRPHPVPDYELKYPPVSSERERSRYVAVFQDQYGEFLELQHEVGCAQAKLRQLEALLSSLPPPQSQKEAQVAARVWREFEMKRMDPGFLDKQARCHYLKGKLRHLKTQIQKFDDQGDSEGSVYF
modifications: Human

Reference: patent US20080081903A1, “METHOD FOR SCREENING TRANSCRIPTIONAL COREGULATORY PROTEINS OF TRANSCRIPTION FACTORS, AND ANDROGEN RECEPTOR TRANSCRIPTIONAL COREGULATORY PROTEINS AS TARGETS FOR ANDROGEN RECEPTOR-DEPENDENT DISEASES” (NEW YORK UNIVERSITY, priority 2001, published 2008)
